From patent US20220089743A1 (Chugai, published 2022)
Positions count from the first letter of the chain named.

B1: DQN0344H0976/L0591//DQN0385H1255/L0605-F6.v2 (bispecific antibody, V domains shown)
VH 1: QVQLVESGGGVVQPGGSLRLSCAASGFTFSSAYWMVWVRQAPGQGLEWMGAVYGGSDTTYYAKWTEGRFTISRDTSKNTLYLQMNSLRAEDTAVYYCAREPLNYYYYGELNLWGQGTLVTVSS
VL 1: DIQMTQSPSSLSASVGDRVTITCQATEEIYSGLAWYQQKPGKAPKLLIYYVSTLYEGIPARFSGSGSGTDFTLTISSLEPEDFAVYYCQTYEDVSAVTFGQGTKVEIK
VH 2: QVQLVESGGGVVQPGRSLRLSCAASGFTFSEWYFMSWVRQAPGKGLEWVASIDTGSGSIDYAGWVEERFTISRDNSKNTLYLQMNSLRAEDTAVYYCARDIGIDYNFWGPGTLVTVSS
VL 2: DIQMTQSPSSLSASVGDRVTITCQTTQSISSYLNWYQQKPGQPPKLLIYYASTKAEGIPARFSGSGSGTDFTLTISSLEPEDFAVYYCHYGISKVSFGQGTKVEIK
B2: DQN0344H1013/L0620//DQN0385H1521/L0605-F6.v2 (bispecific antibody, V domains shown)
VH 1: B1 VH 1 with G16R, L112V
VL 1: B1 VL 1 with E28N, Y55A, E56Y
VH 2: B1 VH 2 with S30E, E31S, G63E, E67G
VL 2: B1 VL 2
B3: DQN0344H0976/L0591//DQN0385H1270/L0681-F6 (bispecific antibody)
heavy 1: QVQLVESGGGVVQPGGSLRLSCAASGFTFSSAYWMVWVRQAPGQGLEWMGAVYGGSDTTYYAKWTEGRFTISRDTSKNTLYLQMNSLRAEDTAVYYCAREPLNYYYYGELNLWGQGTLVTVSSASTKGPSVFPLAPSSKSTSGGTAALGCLVKDYFPEPVTVSWNSGALTSGVHTFPAVLKSSGLYSLSSVVTVPSSSLGTQTYICNVNHKPSNTKVDKRVEPKSCDKTHTCPPCPAPELRRGPSVFLFPPKPKDTLMISRTPEVTCVVVDVSHEDPEVKFNWYVDGVEVHNAKTKPREEQYNSTYRVVSVLTVLHQDWLNGKEYKCKVSNKALPAPIEKTISKAKGQPREPQVYTLPPSREEMTKNQVSLTCLVKGFYPSDIAVEWESNGQPENNYKTTPPYLDSDGSFFLYSKLTVDKSRWQEGNVFSCSVLHEALHAHYTREELSLSP
light 1: DIQMTQSPSSLSASVGDRVTITCQATEEIYSGLAWYQQKPGKAPKLLIYYVSTLYEGIPARFSGSGSGTDFTLTISSLEPEDFAVYYCQTYEDVSAVTFGQGTKVEIKRTVAAPSVFIFPPSDEQLKSGTAEVVCLLNNFYPREAKVQWKVDNALQSGNSEESVTEQDSKDSTYSLSSTLTLSKADYEKHKVYACEVTHQGLSSPVTKSFNRGEC
heavy 2: QVQLVESGGGVVQPGRSLRLSCAASGFTFSEWYFMSWVRQAPGKGLEWVASIDTGSGSIDYAEWVEGRFTISRDNSKNTLYLQMNSLRAEDTAVYYCARDIGIDYNFWGPGTLVTVSSASTKGPSVFPLAPSSKSTSGGTAALGCLVEDYFPEPVTVSWNSGALTSGVHTFPAVLESSGLYSLSSVVTVPSSSLGTKTYICNVNHKPSNTKVDKRVEPKSCDKTHTCPPCPAPELRRGPSVFLFPPKPKDTLMISRTPEVTCVVVDVSHEDPEVKFNWYVDGVEVHNAKTKPREEQYNSTYRVVSVLTVLHQDWLNGKEYKCKVSNKALPAPIEKTISKAKGQPREPQVYTLPPSRKEMTKNQVSLTCLVKGFYPSDIAVEWESNGQPENNYKTTPPYLDSDGSFFLYSKLTVDKSRWQQGNVFSCSVLHEALHAHYTRKELSLSP
light 2: DIQMTQSPSSLSASVGDRVTITCQTTQSISSYLNWYQQKPGQPPKLLIYYASTKAEGIPARFSGSGLGTDFTLTISSLEPEDFAVYYCHYGISKVSFGQGTKVEIKRTVAAPSVFIFPPSDEQLKSGTAKVVCLLNNFYPREAKVQWKVDNALQSGNSKESVTEQDSKDSTYSLSSTLTLSKADYEKHKVYACEVTHQGLSSPVTKSFNRGEC
B4: DQN0344H0976/L0591//DQN0385H1270/L0722-F6 (bispecific antibody)
heavy 1: B3 heavy 1
light 1: B3 light 1
heavy 2: B3 heavy 2
light 2: B3 light 2 with E79Q
B5: DQN0344H0976/L0591//DQN0385H1527/L0605-F6 (bispecific antibody)
heavy 1: B3 heavy 1
light 1: B3 light 1
heavy 2: B3 heavy 2 with S30A, E31S
light 2: B3 light 2 with L67S
B6: DQN0344H0976/L0591//DQN0385H1352/L0681-F6 (bispecific antibody)
heavy 1: B3 heavy 1
light 1: B3 light 1
heavy 2: B3 heavy 2 with T28E
light 2: B3 light 2
B7: DQN0344H0976/L0591//DQN0385H1255/L0605-F6 (bispecific antibody)
heavy 1: B3 heavy 1
light 1: B3 light 1
heavy 2: B3 heavy 2 with E63G, G67E
light 2: B3 light 2 with L67S
B8: DQN0344H1013/L0620//DQN0385H1270/L0681-F6 (bispecific antibody)
heavy 1: B3 heavy 1 with G16R, L112V
light 1: B3 light 1 with E28N, Y55A, E56Y
heavy 2: B3 heavy 2
light 2: B3 light 2

Target: T1, HLA-DQ2.5 on IHW09023 cells loaded with gamma 1 gliadin peptide (human; wheat)
Assay: cell-based or functional assay

| Binder | IC50, γ1 gliadin TCR, 250 nM γ1 gliadin |
| --- | --- |
| B1 | 1.62 ng/mL |
| B2 | 1.9 ng/mL |

Target: T2, HLA-DQ2.5 on IHW09023 cells loaded with gamma 3 gliadin peptide (human; wheat)
Assay: cell-based or functional assay

| Binder | IC50, γ3 gliadin TCR, 100 µM γ3 gliadin |
| --- | --- |
| B1 | 1.55 ng/mL |
| B2 | 1.21 ng/mL |

Target: T3, HLA-DQ2.5 on IHW09023 cells loaded with gamma 4d gliadin peptide (human; wheat)
Assay: cell-based or functional assay

| Binder | IC50, γ4d gliadin TCR, 100 µM γ4d gliadin |
| --- | --- |
| B1 | 8.69 ng/mL |
| B2 | 9.23 ng/mL |

Target: T4, HLA-DQ2.5 on IHW09023 cells loaded with 33 mer gliadin peptide (human; wheat)
Assay: cell-based or functional assay

| Binder | IC50, α1a gliadin TCR, 250 nM 33mer gliadin | IC50, α1b gliadin TCR, 250 nM 33mer gliadin | IC50, α2 gliadin TCR, 250 nM 33mer gliadin |
| --- | --- | --- | --- |
| B1 | 0.46 ng/mL | 1.33 ng/mL | 0.29 ng/mL |
| B2 | 0.6 ng/mL | 1.81 ng/mL | 0.33 ng/mL |

Target: T5, HLA-DQ2.5 on IHW09023 cells loaded with BC hordein peptide (human; barley)
Assay: cell-based or functional assay

| Binder | IC50, BC hordein TCR, 250 nM BC hordein |
| --- | --- |
| B1 | 9.52 ng/mL |
| B2 | 11.4 ng/mL |

Target: T6, HLA-DQ2.5 on IHW09023 cells loaded with gamma 2 gliadin peptide (human; wheat)
Assay: cell-based or functional assay

| Binder | IC50, γ2 gliadin TCR, 250 nM γ2 gliadin |
| --- | --- |
| B1 | 252 ng/mL |
| B2 | 785 ng/mL |

Target: T7, HLA-DQ2.5 on IHW09023 cells loaded with omega1/2 gliadin peptide (human; wheat)
Assay: cell-based or functional assay

| Binder | IC50, ω1 gliadin TCR, 25 µM ω1/2 gliadin | IC50, ω2 gliadin TCR, 250 nM ω1/2 gliadin |
| --- | --- | --- |
| B1 | 1.62 ng/mL | 0.18 ng/mL |
| B2 | 1.96 ng/mL | 0.2 ng/mL |

Target: T8, HLA-DQ2.5 on IHW09023 cells loaded with gamma 4a gliadin peptide (human; wheat)
Assay: cell-based or functional assay

| Binder | IC50, γ4a gliadin TCR, 25 µM γ4a gliadin |
| --- | --- |
| B1 | 636 ng/mL |
| B2 | 1250 ng/mL |

Target: HLA-DQ2.2 on HBBB2.2 cells loaded with 33 mer gliadin peptide (human; wheat)
Assay: cell-based or functional assay

| Binder | IC50, HLA-DQ2.2, α1a gliadin TCR, 25 µM 33mer gliadin | IC50, HLA-DQ2.2, α2 gliadin TCR, 1 µM 33mer gliadin |
| --- | --- | --- |
| B1 | 1.72 ng/mL | 9.48 ng/mL |
| B2 | 1.16 ng/mL | 6.51 ng/mL |

Target: T1, HLA-DQ2.5 on IHW09023 cells loaded with …
Assay: cell-based or functional assay
Remark: another data set of the same source

| Binder | IC50, γ1 gliadin TCR, 250 nM γ1 gliadin |
| --- | --- |
| B3 | 1.05 ng/mL |
| B4 | 0.66 ng/mL |
| B5 | 0.59 ng/mL |
| B6 | 1.11 ng/mL |
| B7 | 0.91 ng/mL |
| B8 | 1.11 ng/mL |

Target: T2, HLA-DQ2.5 on IHW09023 cells loaded with …
Assay: cell-based or functional assay
Remark: another data set of the same source

| Binder | IC50, γ3 gliadin TCR, 100 µM γ3 gliadin |
| --- | --- |
| B3 | 2.4 ng/mL |
| B4 | 2.88 ng/mL |
| B5 | 2.09 ng/mL |
| B6 | 2.99 ng/mL |
| B7 | 2.31 ng/mL |
| B8 | 2.63 ng/mL |

Target: T3, HLA-DQ2.5 on IHW09023 cells loaded with …
Assay: cell-based or functional assay
Remark: another data set of the same source

| Binder | IC50, γ4d gliadin TCR, 100 µM γ4d gliadin |
| --- | --- |
| B3 | 11.8 ng/mL |
| B4 | 16.3 ng/mL |
| B5 | 11.4 ng/mL |
| B6 | 9.82 ng/mL |
| B7 | 12.4 ng/mL |
| B8 | 13.1 ng/mL |

Target: T4, HLA-DQ2.5 on IHW09023 cells loaded with …
Assay: cell-based or functional assay
Remark: another data set of the same source

| Binder | IC50, α1b gliadin TCR, 250 nM 33mer gliadin | IC50, α2 gliadin TCR, 250 nM 33mer gliadin | IC50, α1a gliadin TCR, 250 nM 33mer gliadin |
| --- | --- | --- | --- |
| B3 | 1.36 ng/mL | 0.34 ng/mL | – |
| B4 | 1.41 ng/mL | 0.31 ng/mL | 0.38 ng/mL |
| B5 | 1.84 ng/mL | 0.51 ng/mL | 0.7 ng/mL |
| B6 | 1.37 ng/mL | 0.31 ng/mL | 0.29 ng/mL |
| B7 | 2.66 ng/mL | 0.56 ng/mL | 0.49 ng/mL |
| B8 | 1.78 ng/mL | 0.33 ng/mL | 0.38 ng/mL |

Target: T5, HLA-DQ2.5 on IHW09023 cells loaded with …
Assay: cell-based or functional assay
Remark: another data set of the same source

| Binder | IC50, BC hordein TCR, 250 nM BC hordein |
| --- | --- |
| B3 | 12 ng/mL |
| B4 | 13.2 ng/mL |
| B5 | 6.54 ng/mL |
| B6 | 10.8 ng/mL |
| B7 | 13.6 ng/mL |
| B8 | 7.54 ng/mL |

Target: T6, HLA-DQ2.5 on IHW09023 cells loaded with …
Assay: cell-based or functional assay
Remark: another data set of the same source

| Binder | IC50, γ2 gliadin TCR, 250 nM γ2 gliadin |
| --- | --- |
| B3 | 182 ng/mL |
| B4 | 281 ng/mL |
| B5 | 637 ng/mL |
| B6 | 284 ng/mL |
| B7 | 440 ng/mL |
| B8 | 322 ng/mL |

Target: T7, HLA-DQ2.5 on IHW09023 cells loaded with …
Assay: cell-based or functional assay
Remark: another data set of the same source

| Binder | IC50, ω1 gliadin TCR, 25 µM ω1/2 gliadin | IC50, ω2 gliadin TCR, 250 nM ω1/2 gliadin |
| --- | --- | --- |
| B3 | 2.07 ng/mL | 0.26 ng/mL |
| B4 | 2.55 ng/mL | 0.26 ng/mL |
| B5 | 3.25 ng/mL | 0.3 ng/mL |
| B6 | 1.48 ng/mL | 0.24 ng/mL |
| B7 | 2.62 ng/mL | 0.25 ng/mL |
| B8 | 2.51 ng/mL | 0.2 ng/mL |

Target: T8, HLA-DQ2.5 on IHW09023 cells loaded with …
Assay: cell-based or functional assay
Remark: another data set of the same source

| Binder | IC50, γ4a gliadin TCR, 25 µM γ4a gliadin |
| --- | --- |
| B3 | 749 ng/mL |
| B4 | 726 ng/mL |
| B5 | 1210 ng/mL |
| B6 | 802 ng/mL |
| B7 | 1430 ng/mL |
| B8 | 1160 ng/mL |
